Data reported in patent US20220409550A1.

Experiments:
[1] = biological target: murine PD-L1 on CHO-K1 cells (murine) (UniProt Q9EP73); test: cell-based or functional assay
[2] = biological target: murine PD-L2 (50804-M08H, Sino Biological) (murine) (UniProt Q9WUL5); test: SPR
[3] = biological target: murine PD-L1 (50010-M08H, Sino biological) (murine) (UniProt Q9EP73); test: SPR
Sequence of murine PD-L1 (50010-M08H, Sino biological) (murine) (Q9EP73 19-238, stated change not applied): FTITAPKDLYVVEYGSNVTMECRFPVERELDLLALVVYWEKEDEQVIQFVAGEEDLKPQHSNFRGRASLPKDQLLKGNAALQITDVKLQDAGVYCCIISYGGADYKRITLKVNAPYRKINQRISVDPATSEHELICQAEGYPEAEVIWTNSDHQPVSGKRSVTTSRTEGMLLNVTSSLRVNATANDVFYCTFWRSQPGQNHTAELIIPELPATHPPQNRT

Sequence of murine PD-L2 (50804-M08H, Sino Biological) (murine) (Q9WUL5 20-219, stated change not applied): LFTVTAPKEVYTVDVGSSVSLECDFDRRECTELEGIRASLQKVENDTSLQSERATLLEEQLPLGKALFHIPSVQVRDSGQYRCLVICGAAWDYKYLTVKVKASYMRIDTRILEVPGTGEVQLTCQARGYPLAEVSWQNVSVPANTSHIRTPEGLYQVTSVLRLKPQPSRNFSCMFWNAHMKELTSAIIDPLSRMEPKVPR
Sequence of murine PD-L1 on CHO-K1 cells (murine) (Q9EP73 19-290): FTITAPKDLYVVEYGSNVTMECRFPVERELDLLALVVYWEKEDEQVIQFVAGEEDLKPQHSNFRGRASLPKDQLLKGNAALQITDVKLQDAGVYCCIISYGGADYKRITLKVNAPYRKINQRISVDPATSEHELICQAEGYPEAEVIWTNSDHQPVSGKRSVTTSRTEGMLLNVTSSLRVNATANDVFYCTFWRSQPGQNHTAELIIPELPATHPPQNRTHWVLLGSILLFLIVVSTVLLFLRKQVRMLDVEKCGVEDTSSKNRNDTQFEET

half maximal effective concentration (EC50), NFAT-mediated luciferase expression, bioluminescent PD-1/PD-L1 blockade bioassay [1]: 761 pM
Kd [2]: 2.07E-9 ?
Kd [3]: 3.81E-10 ?
Substance: PD-1-decorated nanocage (PdNC) (from UniProt P02794 1-183)
